Measurements as given in patent US6187552A, “Method for identifying inhibitors of JAK2/cytokine receptor binding” (Pharmacia & Upjohn Company, priority 1998, dated 2001).

Legend:
[1] = molecular target: NJAK2 (N-terminal portion of JAK2) (Homo sapiens, UniProt O60674); experiment: SPA: binding of 3H-NJAK2 (N-terminal JAK2) to βc peptides on streptavidin-coated beads; conditions: less than saturating peptide, 40 pmole per reaction, FIG. 12B
Protocol: (§1) Three different labeling reactions were done using ^3 H-N-succinimidyl propionate (^3 H-NSP, Amersham Life Sciences, Arlington Heights, Ill.). One reaction was done using 0.5 mg of purified JAK2 in 0.1 M borate buffer, pH 8.5, with a reaction volume of 150 μl and an incubation time of one hour on ice with dried 1 mCi of ^3 H-NSP (toluene was removed using a stream of nitrogen). […] Another reaction was done using the buffer 0.1 M sodium phosphate, pH 8.0, and a similar volume as before. One milligram of JAK2 in 1.2 ml of phosphate buffer was incubated for three hours on ice. […] A third reaction was done using 2.5 mg of purified JAK2 in 0.1 m sodium phosphate, pH 8.0, and 2.5 ml volume. It was incubated with 5 mCi of dried ^3 H-NSP on ice for 2 hours. […] All three products were separated from unincorporated label using PD-10 columns (Pharmacia Biotech, Uppsala, Sweden) pre-equilibrated with 20 mM Tris, pH 8.0, 0.15 M NaCl.
(§2) Triplicate reactions were done for each data point. The buffer used in all the assays was 35 mM sodium phosphate, 150 mM NaCl, pH 8.0, 10% glycerol. Biotinylated peptides were allowed to bind to streptavidin-coated SPA beads (Amersham Life Sciences, Arlington Heights, Ill., catalog # RPNQ0006) with either less than saturating peptide or excess peptide. […] Under less than saturating conditions, beads and 40 pmole peptide were added to the assay plate well and incubated for one hour with gentle shaking on a Titer plate shaker (Lab-Line Instruments, Inc., Melrose Park, Ill.) at 600 rpm and not washed. […] The plates were then read on a MicroBeta (Wallac) set to read scintillation due to tritium.
(§3) Either ^3 H-JAK2 or ^3 H-NJAK2 was added to the wells and, after incubation, the signals measured. […] A competition reaction was also done by adding 5 to 10-fold excess unlabeled JAK2 in those reactions.

[2] = molecular target: T1, JAK2 (Homo sapiens, UniProt O60674); experiment: SPA: binding of 3H-JAK2 to βc peptides on streptavidin-coated beads; design: NJAK2 = N-terminal 294 residues
T1 sequence (O60674 3-1132): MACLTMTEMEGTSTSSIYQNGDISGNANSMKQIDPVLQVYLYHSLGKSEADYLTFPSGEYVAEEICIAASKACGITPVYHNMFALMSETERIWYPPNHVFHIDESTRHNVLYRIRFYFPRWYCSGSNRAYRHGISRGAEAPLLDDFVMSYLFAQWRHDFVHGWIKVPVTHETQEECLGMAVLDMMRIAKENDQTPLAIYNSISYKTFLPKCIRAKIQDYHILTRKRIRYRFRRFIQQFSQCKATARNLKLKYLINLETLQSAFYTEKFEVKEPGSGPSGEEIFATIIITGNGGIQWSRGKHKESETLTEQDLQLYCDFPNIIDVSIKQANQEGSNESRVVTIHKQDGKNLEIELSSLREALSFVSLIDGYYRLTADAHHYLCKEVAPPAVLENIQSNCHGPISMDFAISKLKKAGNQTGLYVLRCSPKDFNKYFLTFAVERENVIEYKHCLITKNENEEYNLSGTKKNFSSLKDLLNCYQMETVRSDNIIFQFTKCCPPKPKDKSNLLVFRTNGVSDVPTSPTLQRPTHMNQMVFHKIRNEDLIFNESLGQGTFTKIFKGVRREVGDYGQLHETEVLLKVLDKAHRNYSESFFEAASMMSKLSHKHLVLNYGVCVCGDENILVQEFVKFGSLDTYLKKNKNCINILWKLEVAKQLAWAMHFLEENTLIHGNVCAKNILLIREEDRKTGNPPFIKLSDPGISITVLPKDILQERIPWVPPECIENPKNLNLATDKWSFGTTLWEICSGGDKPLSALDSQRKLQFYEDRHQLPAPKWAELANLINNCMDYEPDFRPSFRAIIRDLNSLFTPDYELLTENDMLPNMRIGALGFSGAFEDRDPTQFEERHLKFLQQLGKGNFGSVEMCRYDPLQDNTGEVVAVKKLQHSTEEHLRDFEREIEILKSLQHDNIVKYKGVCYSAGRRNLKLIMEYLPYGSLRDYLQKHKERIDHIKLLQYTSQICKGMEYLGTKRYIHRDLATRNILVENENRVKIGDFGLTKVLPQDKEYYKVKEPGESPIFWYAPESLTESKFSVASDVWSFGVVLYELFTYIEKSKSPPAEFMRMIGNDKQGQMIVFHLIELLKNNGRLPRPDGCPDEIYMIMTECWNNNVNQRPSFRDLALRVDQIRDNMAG
Protocol: Cells were lysed by dounce homogenization (20 strokes) in 1X phosphate buffered saline (PBS), pH 7.5 at 4 C. […] For some experiments, the JAK2 protein (0.15 mg/ml), aliquoted into 7 equivalent tubes, was then subjected to ultracentrifugation in an Airfuge using an A-110 rotor at an average of 164,000×g for a period of 6 hours at ambient temperature. At zero time, and at each subsequent hour thereafter, a tube of JAK2 was removed for analyses (ELISA, SDS polyacrylamide gel electrophoresis, and Western blotting).
as §1, §2, §3

[3] = molecular target: T1, JAK2; experiment: ELISA binding of JAK2 to immobilized βc peptides; design: Y918N clone error corrected to Tyr
Protocol: βc peptides corresponding to the proposed JAK2 binding domain (Table 1) were serially diluted and bound 16 hours at room temperature to streptavidin coated 96-well plates (Boehringer-Mannheim, Indianapolis, Ind.) and blocked at 37° with 1% fetal bovine serum in PBS. JAK2 protein was serially diluted on the plate and allowed to bind for 1 hour at room temperature. Plates were washed between incubations with ELISA wash (PBS with 0.04% TWEEN 20). Detection was via anti-FLAG antibody (10 μg/ml, Kodak, New Haven, Conn.) followed by anti-mouse Ig conjugated to peroxidase (1:5000 dilution, Boehringer Mannheim) and 1 mg/ml 2,2'-azinobis(3-ethylbenzthiazolinesulfonic acid) (Sigma), 0.003% H2 O2, 28 mM citric acid, 44 mM Na2 HPO4.
The ELISA assay worked best when the biotinylated βc peptides were immobilized on a streptavidin 96-well plate and the JAK2 was allowed to bind. A dual titration of βc peptides vs. JAK2 was performed (FIG. 24). Peptide 1 [SEQ ID NO:11] (FIG. 24 A) and peptide 2 [SEQ ID NO:12] […] Because 0.4 μM peptide was calculated to saturate the number of biotin binding sites in each well, it was expected that the amount of JAK2 binding should saturate at this quantity of peptide. […] (FIGS. 24 C and D) but peptides 5 and 6 [SEQ ID NOS:15 and 16]

Sequence of NJAK2 (N-terminal portion of JAK2) (O60674 1-294 S277G): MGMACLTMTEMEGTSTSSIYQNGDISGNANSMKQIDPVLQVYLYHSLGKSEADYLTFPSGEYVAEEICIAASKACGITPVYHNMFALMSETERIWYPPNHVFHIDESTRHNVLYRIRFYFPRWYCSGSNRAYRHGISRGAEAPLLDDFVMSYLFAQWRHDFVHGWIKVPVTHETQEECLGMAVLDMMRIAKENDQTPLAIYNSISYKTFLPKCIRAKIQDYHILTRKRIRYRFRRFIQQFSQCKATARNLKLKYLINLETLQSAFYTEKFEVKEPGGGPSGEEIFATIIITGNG

In the case of “GIYGYRLRRKWEEKIPNPSKSHLFQNGSAELWP [peptide 4, βc peptide, N-terminal truncation]”, the “activity profile in binding 3H-NJAK2 (signal)” value [1] was “peptide 4>peptide 3>peptide 5>peptide 6>peptides 1 and 2”, the “binding in the SPA, comparison of peptides” value [2] was “binds better than peptide 3” and the “suitability in the SPA” value [2] was “two most optimal”. For the same sequence, the signal-to-noise ratio ([2]; 40 pmole (0.17 μg) peptide per reaction, without optimization) was 4.5, the “signal to noise ratio” value ([2]; 5.5 nM JAK2, κ-casein present, FIG. 17B) was 14 and the signal-to-noise ratio ([2]; BSA 0.1 mg/ml or 0.5 mg/ml (either concentration), FIG. 16) was 5. The signal-to-noise ratio ([2]; BSA experiment, no additions, FIG. 16) was 4, the “amount of JAK2 at which binding reaches saturation” value ([2]; binding curve, peptide 4, FIG. 17A) was “about 40 pmole” and the “apparent Kd” value ([2]; binding curve, varying labeled JAK2, FIG. 17A) was “very low apparent Kd”. For the same sequence, the signal-to-noise ratio ([2]; excess peptide, no κ-casein, FIG. 15) was 10, the signal-to-noise ratio ([2]; excess peptide, κ-casein 1 mg/ml during peptide binding to beads, FIG. 15) was 35 and the “strength of binding (linear increase with JAK2)” value ([2]; less than saturating JAK2, FIG. 17B) was “very strong”. For the same sequence, the “activity profile in binding 3H-JAK2 (signal)” value ([2]; less than saturating peptide, 40 pmole per reaction, 3H-JAK2, FIG. 12A) was “peptide 4>peptide 3>peptide 5>peptide 6>peptides 1 and 2”, the “overall signals and signal-to-noise ratios, peptide and labeled JAK2 mixed prior to adding beads” value ([2]; mixed one hour before beads, versus peptide bound to bead first, FIG. 13) was “lower overall signals and signal-to-noise ratios” and the “activity profile, peptide and labeled JAK2 mixed prior to adding beads” value ([2]; mixed one hour before beads, FIG. 13) was “same activity profile”. For the same sequence, the “suitability for the ELISA” value [3] was “appear optimal”.
